Measured values taken from patent US12618845B2, “Methods and compositions for protein sequencing” (Quantum-Si Incorporated, priority 2018, dated 2026).
Like-named read-outs stand apart in the source and are kept apart here.

System: peptide substrates
Assay type: biochemical

B1: VPr: Vibrio proteolyticus aminopeptidase (protein)
chain: MPPITQQATVTAWLPQVDASQITGTISSLESFTNRFYTTTSGAQASDWIASEWQALSASLPNASVKQVSHSGYNQKSVVMTITGSEAPDEWIVIGGHLDSTIGSHTNEQSVAPGADDDASGIAAVTEVIRVLSENNFQPKRSIAFMAYAAEEVGLRGSQDLANQYKSEGKNVVSALQLDMTNYKGSAQDVVFITDYTDSNFTQYLTQLMDEYLPSLTYGFDTCGYACSDHASWHNAGYPAAMPFESKFNDYNPRIHTTQDTLANSDPTGSHAKKFTQLGLAYAIEMGSATGDTPTPGNQ
- HPLC Assay Conv (substrate AAMAAM{LYSN3}NH2 (SEQ ID NO: 74), 1 mM peptide, 2 mM enzyme, 2.5 mM ZnCl2, 25 mM Tris pH 8.0, 30° C./1 hr): 100%
- HPLC Assay Conv (substrate AAPAAP{LYSN3}NH2 (SEQ ID NO: 98), 1 mM peptide, 2 mM enzyme, 2.5 mM ZnCl2, 25 mM Tris pH 8.0, 30° C./1 hr): 100%
- HPLC Assay Conv (substrate AAPFQQ (SEQ ID NO: 118), 1 mM Peptide, 1 μM enzyme, 10 mM Mg(OAc)2, 50 mM MOPS pH 8, 60 mM KOAc, RT/0.5 hr): 100%
- HPLC Assay Conv (substrate CCPFQQ (SEQ ID NO: 144), 1 mM Peptide, 1 μM enzyme, 10 mM Mg(OAc)2, 50 mM MOPS pH 8, 60 mM KOAc, RT/0.5 hr): 70%
- HPLC Assay Conv (substrate DDPFQQ (SEQ ID NO: 126), 1 mM Peptide, 1 uM enzyme, 10 mM Mg(OAc)2, 50 mM MOPS pH 8, 60 mM KOAc, RT/0.5 hr): 0%
- HPLC Assay Conv (substrate EEPFQQ (SEQ ID NO: 128), 1 mM Peptide, 1 uM enzyme, 10 mM Mg(OAc)2, 50 mM MOPS pH 8, 60 mM KOAc, RT/0.5 hr): 0%
- HPLC Assay Conv (substrate FFPFFP{LYSN3}NH2 (SEQ ID NO: 94), 1 mM peptide, 2 mM enzyme, 2.5 mM ZnCl2, 25 mM Tris pH 8.0, 30° C./1 hr): 100%
- HPLC Assay Conv (substrate FFPFQQ (SEQ ID NO: 124), 1 mM Peptide, 1 μM enzyme, 10 mM Mg(OAc)2, 50 mM MOPS pH 8, 60 mM KOAc, RT/0.5 hr): 100%
- HPLC Assay Conv (substrate GGPFQQ (SEQ ID NO: 152), 1 mM Peptide, 1 μM enzyme, 10 mM Mg(OAc)2, 50 mM MOPS pH 8, 60 mM KOAc, RT/0.5 hr): 8%
- HPLC Assay Conv (substrate HHPFQQ (SEQ ID NO: 154), 1 mM Peptide, 1 μM enzyme, 10 mM Mg(OAc)2, 50 mM MOPS pH 8, 60 mM KOAc, RT/0.5 hr): 12%
- HPLC Assay Conv (substrate IIPFQQ (SEQ ID NO: 136), 1 mM Peptide, 1 μM enzyme, 10 mM Mg(OAc)2, 50 mM MOPS pH 8, 60 mM KOAc, RT/0.5 hr): 100%
- HPLC Assay Conv (substrate KKMKKM{LYSN3}NH2 (SEQ ID NO: 89), 1 mM peptide, 2 mM enzyme, 2.5 mM ZnCl2, 25 mM Tris pH 8.0, 30° C./1 hr): 100%
- HPLC Assay Conv (substrate KKPFQQ (SEQ ID NO: 120), 1 mM Peptide, 1 μM enzyme, 10 mM Mg(OAc)2, 50 mM MOPS pH 8, 60 mM KOAc, RT/0.5 hr): 32%
- HPLC Assay Conv (substrate KKPKKP{LYSN3}NH2 (SEQ ID NO: 100), 1 mM peptide, 2 mM enzyme, 2.5 mM ZnCl2, 25 mM Tris pH 8.0, 30° C./1 hr): 100%
- HPLC Assay Conv (substrate LLPFQQ (SEQ ID NO: 138), 1 mM Peptide, 1 μM enzyme, 10 mM Mg(OAc)2, 50 mM MOPS pH 8, 60 mM KOAc, RT/0.5 hr): 100%
- HPLC Assay Conv (substrate MMPFQQ (SEQ ID NO: 148), 1 mM Peptide, 1 μM enzyme, 10 mM Mg(OAc)2, 50 mM MOPS pH 8, 60 mM KOAc, RT/0.5 hr): 100%
- HPLC Assay Conv (substrate NNPFQQ (SEQ ID NO: 130), 1 mM Peptide, 1 μM enzyme, 10 mM Mg(OAc)2, 50 mM MOPS pH 8, 60 mM KOAc, RT/0.5 hr): 15%
- HPLC Assay Conv (substrate PPPFQQ (SEQ ID NO: 150), 1 mM Peptide, 1 μM enzyme, 10 mM Mg(OAc)2, 50 mM MOPS pH 8, 60 mM KOAc, RT/0.5 hr): 0%
- HPLC Assay Conv (substrate QP5-Atto649N ([…]{LYSN3}NH2) (SEQ ID NO: 106), 37 μM Peptide, 8 μM Enzyme, 2.5 mM ZnCl2, 25 mM Tris pH 8.0, 37° C./0.5 hr): 100%
- HPLC Assay Conv (substrate QP15 […]{LYSN3}NH2 (SEQ ID NO: 107), 1200 μM Peptide, 0.008 μM enzyme, 10 mM Mg(OAc)2, 50 mM MOPS pH 5.5, RT/0.5 hr): 1.40%
- HPLC Assay Conv (substrate QP15 […]{LYSN3}NH2 (SEQ ID NO: 107), 1200 μM Peptide, 0.008 μM enzyme, 10 mM Mg(OAc)2, 50 mM MOPS pH 6.5, RT/0.5 hr): 56%
- HPLC Assay Conv (substrate QQPFQQ (SEQ ID NO: 132), 1 mM Peptide, 1 μM enzyme, 10 mM Mg(OAc)2, 50 mM MOPS pH 8, 60 mM KOAc, RT/0.5 hr): 66%
- HPLC Assay Conv (substrate RRPFQQ (SEQ ID NO: 116), 1 mM Peptide, 1 μM enzyme, 10 mM Mg(OAc)2, 50 mM MOPS pH 8, 60 mM KOAc, RT/0.5 hr): 79%
- HPLC Assay Conv (substrate RRPRRP{LYSN3}NH2 (SEQ ID NO: 96), 1 mM peptide, 2 mM enzyme, 2.5 mM ZnCl2, 25 mM Tris pH 8.0, 30° C./1 hr): 100%
- HPLC Assay Conv (substrate SSPFQQ (SEQ ID NO: 140), 1 mM Peptide, 1 μM enzyme, 10 mM Mg(OAc)2, 50 mM MOPS pH 8, 60 mM KOAc, RT/0.5 hr): 48%
- HPLC Assay Conv (substrate TTPFQQ (SEQ ID NO: 142), 1 mM Peptide, 1 μM enzyme, 10 mM Mg(OAc)2, 50 mM MOPS pH 8, 60 mM KOAc, RT/0.5 hr): 100%
- HPLC Assay Conv (substrate VVPFQQ (SEQ ID NO: 134), 1 mM Peptide, 1 μM enzyme, 10 mM Mg(OAc)2, 50 mM MOPS pH 8, 60 mM KOAc, RT/0.5 hr): 100%
- HPLC Assay Conv (substrate WWPFQQ (SEQ ID NO: 146), 1 mM Peptide, 1 μM enzyme, 10 mM Mg(OAc)2, 50 mM MOPS pH 8, 60 mM KOAc, RT/0.5 hr): 82%
- HPLC Assay Conv (substrate YYMYYM{LYSN3}NH2 (SEQ ID NO: 103), 1 mM peptide, 2 mM enzyme, 2.5 mM ZnCl2, 25 mM Tris pH 8.0, 30° C./1 hr): >90%
- HPLC Assay Conv (substrate YYPFQQ (SEQ ID NO: 122), 1 mM Peptide, 1 μM enzyme, 10 mM Mg(OAc)2, 50 mM MOPS pH 8, 60 mM KOAc, RT/0.5 hr): 56%
- HPLC Assay Conv (substrate YYPYYP{LYSN3}NH2 (SEQ ID NO: 92), 1 mM peptide, 2 mM enzyme, 2.5 mM ZnCl2, 25 mM Tris pH 8.0, 30° C./1 hr): 50%
